Assay results from US20110091463A1 (AbbVie / Abbott, published 2011).

How the values were obtained:
[1] = biological target: NGF (Neuroscreen-1 bioassay); test: cell-based or functional assay
IL-1β (MRC5 bioassay) = test: cell-based or functional assay
[2] = biological target: T1, Recombinant Human IL-6 sR (human, UniProt P08887 20-358, limits assumed); test: SPR (Biacore), antibody captured on chip, antigen injected, 25 C
T1 construct: Bought soluble receptor ('sR'); also called IL-6R
T1 sequence (looked up): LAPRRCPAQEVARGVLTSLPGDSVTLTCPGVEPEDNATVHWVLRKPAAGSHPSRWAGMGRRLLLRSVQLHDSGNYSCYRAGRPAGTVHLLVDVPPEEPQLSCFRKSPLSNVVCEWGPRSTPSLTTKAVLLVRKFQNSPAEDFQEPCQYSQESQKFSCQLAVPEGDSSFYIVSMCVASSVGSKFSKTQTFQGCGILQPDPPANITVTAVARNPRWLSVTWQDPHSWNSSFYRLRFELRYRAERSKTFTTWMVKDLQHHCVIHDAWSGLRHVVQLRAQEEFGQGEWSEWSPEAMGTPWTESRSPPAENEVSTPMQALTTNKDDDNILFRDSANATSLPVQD
Description: (§1) The BIACORE assay (Biacore, Inc, Piscataway, N.J.) determines the affinity of antibodies or DVD-Ig with kinetic measurements of on-rate and off-rate constants. Binding of antibodies or DVD-Ig to a target antigen (for example, a purified recombinant target antigen) is determined by surface plasmon resonance-based measurements with a Biacore® 1000 or 3000 instrument (Biacore® AB, Uppsala, Sweden) using running HBS-EP (10 mM HEPES [pH 7.4], 150 mM NaCl, 3 mM EDTA, and 0.005% surfactant P20) at 25° C. All chemicals are obtained from Biacore® AB (Uppsala, Sweden) or otherwise from a different source as described in the text. For example, approximately 5000 RU of goat anti-mouse IgG, (Fcγ), fragment specific polyclonal antibody (Pierce Biotechnology Inc, Rockford, Ill.) diluted in 10 mM sodium acetate (pH 4.5) is directly immobilized across a CM5 research grade biosensor chip using a standard amine coupling kit according to manufacturer's instructions and procedures at 25 μg/ml. Unreacted moieties on the biosensor surface are blocked with ethanolamine. Modified carboxymethyl dextran surface in flowcell 2 and 4 is used as a reaction surface. Unmodified carboxymethyl dextran without goat anti-mouse IgG in flow cell 1 and 3 is used as the reference surface. For kinetic analysis, rate equations derived from the 1:1 Langmuir binding model are fitted simultaneously to association and dissociation phases of all eight injections (using global fit analysis) with the use of Biaevaluation 4.0.1 software. Purified antibodies or DVD-Ig are diluted in HEPES-buffered saline for capture across goat anti-mouse IgG specific reaction surfaces. Antibodies or DVD-Ig to be captured as a ligand (25 μg/ml) are injected over reaction matrices at a flow rate of 5 μl/min. The association and dissociation rate constants, kₒₙ (M⁻¹ s⁻¹) and koff (s⁻¹) are determined under a continuous flow rate of 25 μl/min. Rate constants are derived by making kinetic binding measurements at different antigen concentrations ranging from 10-200 nM. The equilibrium dissociation constant (M) of the reaction between antibodies or DVD-Igs and the target antigen is then calculated from the kinetic rate constants by the following formula: KD=koff/kₒₙ. Binding is recorded as a function of time and kinetic rate constants are calculated.

IL-6R on TF-1 cells = biological target: T2, IL-6R on TF-1 cells (UniProt P08887 20-468, limits assumed); test: cell-based or functional assay
T2 sequence (looked up): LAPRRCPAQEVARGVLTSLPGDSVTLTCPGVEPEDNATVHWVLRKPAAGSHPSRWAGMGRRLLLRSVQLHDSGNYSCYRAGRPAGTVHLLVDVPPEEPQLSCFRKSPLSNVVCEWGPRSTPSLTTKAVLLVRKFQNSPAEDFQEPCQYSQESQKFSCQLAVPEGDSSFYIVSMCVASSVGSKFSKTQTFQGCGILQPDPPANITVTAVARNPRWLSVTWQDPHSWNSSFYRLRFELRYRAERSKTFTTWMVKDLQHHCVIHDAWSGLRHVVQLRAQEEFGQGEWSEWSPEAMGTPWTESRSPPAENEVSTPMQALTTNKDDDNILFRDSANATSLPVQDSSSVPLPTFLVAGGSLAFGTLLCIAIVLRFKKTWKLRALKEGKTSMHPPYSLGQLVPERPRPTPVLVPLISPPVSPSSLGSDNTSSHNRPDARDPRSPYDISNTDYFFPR

Recombinant Human β-NGF = biological target: T3, Recombinant Human β-NGF (human, UniProt P01138 122-241); test: SPR (Biacore), antibody captured on chip, antigen injected, 25 C
T3 construct: Bought reagent
Description: as §1

Recombinant Human IL-1β = biological target: T4, Recombinant Human IL-1β (human, UniProt P01584 117-269); test: SPR (Biacore), DVD-Ig captured on chip, antigen injected, 25 C
T4 construct: Bought reagent; also called IL-1b; Il-1b
Description: as §1, with “Antibodies or DVD-Ig to be captured as a ligand (25 μg/ml) are injected over reaction matrices at a flow rate of 5 μl/min.” left out, “Rate constants are derived by making kinetic binding measurements at different antigen concentrations ranging from 10-200 nM.” left out

Chain of NGF (Neuroscreen-1 bioassay) (P01138 122-241): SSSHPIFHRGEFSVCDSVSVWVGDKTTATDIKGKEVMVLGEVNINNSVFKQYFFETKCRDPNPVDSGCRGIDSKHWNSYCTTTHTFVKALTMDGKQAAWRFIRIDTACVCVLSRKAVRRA
T3 sequence (P01138 122-241 limits assumed): as the sequence (P01138 122-241) above
Chain of IL-1β (MRC5 bioassay) (P01584 117-269): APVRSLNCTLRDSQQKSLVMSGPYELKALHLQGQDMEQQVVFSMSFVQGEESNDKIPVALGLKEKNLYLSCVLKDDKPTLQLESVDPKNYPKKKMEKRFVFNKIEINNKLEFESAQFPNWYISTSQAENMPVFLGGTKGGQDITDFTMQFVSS

B1: DVD934 (bispecific antibody, human IgG1, kappa)
heavy: not shown
light: DVLMTQTPLSLPVTPGEPASISCTSSQNIVHSNGNTYLEWYLQKPGQSPQLLIYKVSNRFSGVPDRFSGSGSGTDFTLKISRVEAEDVGVYYCFQVSHVPYTFGGGTKVEIKRTVAAPDIQMTQSPSSLSASVGDRVTITCRASEDIYNALAWYQQKPGKAPKLLIYNTDTLHTGVPSRFSGSGSGTDYTLTISSLQPEDFATYFCQHYFHYPRTFGQGTKVEIKRTVAAPSVFIFPPSDEQLKSGTASVVCLLNNFYPREAKVQWKVDNALQSGNSQESVTEQDSKDSTYSLSSTLTLSKADYEKHKVYACEVTHQGLSSPVTKSFNRGEC
B1 was tested, and the “C-Terminal VD NGF Inhibition Assay EC50 pM (ERK1/2 phosphorylation in Neuroscreen-1 cells)” value [1] was over 5000 pM.

B2: DVD949 (bispecific antibody, human IgG1, kappa)
heavy: not shown
light: DIQMTQSPSSLSASVGDRVTITCRASEDIYNALAWYQQKPGKAPKLLIYNTDTLHTGVPSRFSGSGSGTDYTLTISSLQPEDFATYFCQHYFHYPRTFGQGTKVEIKRTVAAPDIQMTQSPSSLSASVGDRVTITCRASGNIHNYLTWYQQTPGKAPKLLIYNAKTLADGVPSRFSGSGSGTDYTFTISSLQPEDIATYYCQHFWSIPYTFGQGTKLQITTVAAPSVFIFPPSDEQLKSGTASVVCLLNNFYPREAKVQWKVDNALQSGNSQESVTEQDSKDSTYSLSSTLTLSKADYEKHKVYACEVTHQGLSSPVTKSFNRGEC
For B2, the “N-Terminal VD NGF Inhibition Assay EC50 pM (ERK1/2 phosphorylation in Neuroscreen-1 cells)” value [1] was 55 pM and the “N-Terminal VD IL-1β Neutralization Assay EC50 nM (IL-8 release by MRC5 cells)” value (IL-1β (MRC5 bioassay)) was 0.148 nM.

B3: AB054 (antibody, V domains shown)
VH: EVQLQESGPGLVRPSQTLSLTCTVSGYSITSDHAWSWVRQPPGRGLEWIGYISYSGITTYNPSLKSRVTMLRDTSKNQFSLRLSSVTAADTAVYYCARSLARTTAMDYWGQGSLVTVSS
VL: DIQMTQSPSSLSASVGDRVTITCRASQDISSYLNWYQQKPGKAPKLLIYYTSRLHSGVPSRFSGSGSGTDFTFTISSLQPEDIATYYCQQGNTLPYTFGQGTKVEIKR
notes: Parent antibody; also called IL-6R parent antibody; AB054VH
With B3 the Kd [2] was 0.614 nM, the koff [2] was 0.000206 s⁻¹ and the kon [2] was 336000 M⁻¹ s⁻¹. The “IL-6 Inhibition Assay EC50 µM (IL-6 induced pSTAT3 in TF-1 cells)” value (IL-6R on TF-1 cells) was 0.07 µM.

B4: AB020 (antibody, V domains shown)
VH: QVQLQESGPGLVKPSETLSLTCTVSGFSLIGYDLNWIRQPPGKGLEWIGIIWGDGTTDYNSAVKSRVTISKDTSKNQFSLKLSSVTAADTAVYYCARGGYWYATSYYFDYWGQGTLVTVSS
VL: DIQMTQSPSSLSASVGDRVTITCRASQSISNNLNWYQQKPGKAPKLLIYYTSRFHSGVPSRFSGSGSGTDFTFTISSLQPEDIATYYCQQEHTLPYTFGQGTKLEIKR
notes: Parent antibody; also called AB020VH
B4 gave a Kd (Recombinant Human β-NGF) of 0.00673 nM, a koff (Recombinant Human β-NGF) of 4.08e-06 s⁻¹ and a kon (Recombinant Human β-NGF) of 606000 M⁻¹ s⁻¹.

B5: DVD933 (bispecific antibody, human IgG1, kappa)
heavy: not shown
light: DIQMTQSPSSLSASVGDRVTITCRASEDIYNALAWYQQKPGKAPKLLIYNTDTLHTGVPSRFSGSGSGTDYTLTISSLQPEDFATYFCQHYFHYPRTFGQGTKVEIKRTVAAPDVLMTQTPLSLPVTPGEPASISCTSSQNIVHSNGNTYLEWYLQKPGQSPQLLIYKVSNRFSGVPDRFSGSGSGTDFTLKISRVEAEDVGVYYCFQVSHVPYTFGGGTKVEIKRTVAAPSVFIFPPSDEQLKSGTASVVCLLNNFYPREAKVQWKVDNALQSGNSQESVTEQDSKDSTYSLSSTLTLSKADYEKHKVYACEVTHQGLSSPVTKSFNRGEC
In the case of B5, the “N-Terminal VD NGF Inhibition Assay EC50 pM (ERK1/2 phosphorylation in Neuroscreen-1 cells)” value [1] is reported as 49 pM.

B6: DVD950 (bispecific antibody, human IgG1, kappa)
heavy: not shown
light: DIQMTQSPSSLSASVGDRVTITCRASGNIHNYLTWYQQTPGKAPKLLIYNAKTLADGVPSRFSGSGSGTDYTFTISSLQPEDIATYYCQHFWSIPYTFGQGTKLQITTVAAPDIQMTQSPSSLSASVGDRVTITCRASEDIYNALAWYQQKPGKAPKLLIYNTDTLHTGVPSRFSGSGSGTDYTLTISSLQPEDFATYFCQHYFHYPRTFGQGTKVEIKRTVAAPSVFIFPPSDEQLKSGTASVVCLLNNFYPREAKVQWKVDNALQSGNSQESVTEQDSKDSTYSLSSTLTLSKADYEKHKVYACEVTHQGLSSPVTKSFNRGEC
notes: DVD-Ig; also called DVD950H; DVD950L
With B6 the “C-Terminal VD NGF Inhibition Assay EC50 pM (ERK1/2 phosphorylation in Neuroscreen-1 cells)” value [1] was 316 pM, the Kd (Recombinant Human IL-1β) was 0.495 nM and the koff (Recombinant Human IL-1β) was 0.000487 s⁻¹. For the same binder, the kon (Recombinant Human IL-1β) was 983000 M⁻¹ s⁻¹ and the “C-Terminal VD IL-1β Neutralization Assay EC50 nM (IL-8 release by MRC5 cells)” value (IL-1β (MRC5 bioassay)) was 26 nM.

B7: DVD1207 (bispecific antibody, human IgG1, kappa)
heavy: not shown
light: DIQMTQSPSSLSASVGDRVTITCRASQDISSYLNWYQQKPGKAPKLLIYYTSRLHSGVPSRFSGSGSGTDFTFTISSLQPEDIATYYCQQGNTLPYTFGQGTKVEIKRTVAAPDIQMTQSPSSLSASVGDRVTITCRASEDIYNALAWYQQKPGKAPKLLIYNTDTLHTGVPSRFSGSGSGTDYTLTISSLQPEDFATYFCQHYFHYPRTFGQGTKVEIKRTVAAPSVFIFPPSDEQLKSGTASVVCLLNNFYPREAKVQWKVDNALQSGNSQESVTEQDSKDSTYSLSSTLTLSKADYEKHKVYACEVTHQGLSSPVTKSFNRGEC
For B7, the “C-Terminal VD NGF Inhibition Assay EC50 pM (ERK1/2 phosphorylation in Neuroscreen-1 cells)” value [1] was over 5000 pM and the “N-Terminal VD IL-6 Inhibition Assay EC50 µM (IL-6 induced pSTAT3 in TF-1 cells)” value (IL-6R on TF-1 cells) was 0.089 µM.
